Measured values published in article PMC9274624.

Target: Malayan pangolin ACE2 extracellular domain (residues 1-740) fused with the Fc domain of mouse IgG (Malayan pangolin)
Assay: SPR

SARS-CoV-2 Delta RBD (residues 319-541) (from UniProt P0DTC2 319-541) (domain or fragment)
Kd: 58.2 nM
